One substance from US12091446 can be followed below.

The target in test [1] is SARS-COV-2 RBD Mu variant (SARS-CoV-2).
In test [2] the target is SARS-COV-2 RBD Beta variant (SARS-CoV-2).
Test [3] addresses SARS-COV-2 RBD Lambda variant (SARS-CoV-2).
The target of test [4] is SARS-COV-2 RBD Gamma variant (SARS-CoV-2).

huACE2-Fc, sequence (Q9BYF1 18-740): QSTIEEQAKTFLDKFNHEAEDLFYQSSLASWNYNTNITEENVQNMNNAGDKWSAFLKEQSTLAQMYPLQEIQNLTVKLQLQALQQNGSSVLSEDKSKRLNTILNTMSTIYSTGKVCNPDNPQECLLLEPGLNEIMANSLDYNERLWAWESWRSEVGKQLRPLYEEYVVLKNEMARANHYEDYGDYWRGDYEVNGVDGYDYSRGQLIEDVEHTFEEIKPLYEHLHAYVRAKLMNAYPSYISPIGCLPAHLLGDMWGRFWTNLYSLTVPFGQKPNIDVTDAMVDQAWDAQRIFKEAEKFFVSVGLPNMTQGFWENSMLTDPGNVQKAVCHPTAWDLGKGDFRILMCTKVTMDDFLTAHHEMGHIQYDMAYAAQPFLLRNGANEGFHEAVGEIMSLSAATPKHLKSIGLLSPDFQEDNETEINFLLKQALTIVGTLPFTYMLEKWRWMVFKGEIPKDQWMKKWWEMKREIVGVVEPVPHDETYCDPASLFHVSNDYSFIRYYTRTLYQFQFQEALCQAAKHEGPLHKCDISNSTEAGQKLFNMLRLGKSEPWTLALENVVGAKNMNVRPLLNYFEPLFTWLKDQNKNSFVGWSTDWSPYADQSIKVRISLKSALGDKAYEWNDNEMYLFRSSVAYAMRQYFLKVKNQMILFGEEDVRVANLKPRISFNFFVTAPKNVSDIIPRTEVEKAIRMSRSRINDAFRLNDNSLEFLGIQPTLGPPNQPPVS

By Kd is commonly meant the constant that tells how readily two partners part at equilibrium. The low end stands for tighter binding, the high end for weaker binding. In the case of “huACE2-Fc (from UniProt Q9BYF1) (Fc fusion)”, the Kd came out at 12.9 nM in test [1], 44.4 nM in test [2], 5.34 nM in test [3] and 3.6 nM in test [4].
